Experiments:
[1] = molecular target: glycosylated human proBNP(1-108), recombinant protein from HEK293 cells (HyTest) (human) (UniProt P16860); experiment: SPR ProteOn XPR36, mAb captured by anti-Fc, soluble antigen 13-200 nM
[2] = molecular target: human proBNP(1-108), recombinant protein produced in E. coli (HyTest), non-glycosylated (human) (UniProt P16860); experiment: as above
[3] = molecular target: human BNP(1-32), synthetic peptide (Sigma-Aldrich #B-5900) (human); experiment: sandwich ELISA, L21016 capture; BNP(1-32) 625 pg/ml
Sequence of human BNP(1-32), synthetic peptide (Sigma-Aldrich #B-5900) (human) (peptide, as listed by the source): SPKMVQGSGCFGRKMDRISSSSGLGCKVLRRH

[4] = molecular target: human BNP(1-32), synthetic peptide (Sigma-Aldrich #B-5900) (human); experiment: sandwich ELISA, L21016 capture; BNP(1-32) 20 pg/ml
[5] = molecular target: human proBNP(1-108), recombinant protein produced in E. coli (HyTest), non-glycosylated (human) (UniProt P16860); experiment: sandwich ELISA, hinge 76 capture, HRP-mAb; proBNP(1-108) 156.25 pg/ml
[6] = molecular target: human BNP(1-32), synthetic peptide (Sigma-Aldrich #B-5900) (human); experiment: sandwich ELISA, L21016 capture; BNP(1-32) 39 pg/ml
[7] = molecular target: human BNP(1-32), synthetic peptide (Sigma-Aldrich #B-5900) (human); experiment: sandwich ELISA, L21016 capture; BNP(1-32) 1,250 pg/ml
[8] = molecular target: human proBNP(1-108), recombinant protein produced in E. coli (HyTest), non-glycosylated (human) (UniProt P16860); experiment: sandwich ELISA, hinge 76 capture, HRP-mAb; proBNP(1-108) 20 pg/ml
[9] = molecular target: human BNP(1-32), synthetic peptide (Sigma-Aldrich #B-5900) (human); experiment: sandwich ELISA, L21016 capture; BNP(1-32) 312.5 pg/ml
[10] = molecular target: human proBNP(1-108), recombinant protein produced in E. coli (HyTest), non-glycosylated (human) (UniProt P16860); experiment: sandwich ELISA, hinge 76 capture, HRP-mAb; proBNP(1-108) 10,000 pg/ml
[11] = molecular target: human proBNP(1-108), recombinant protein produced in E. coli (HyTest), non-glycosylated (human) (UniProt P16860); experiment: sandwich ELISA, hinge 76 capture, HRP-mAb; proBNP(1-108) 39 pg/ml
[12] = molecular target: human proBNP(1-108), recombinant protein produced in E. coli (HyTest), non-glycosylated (human) (UniProt P16860); experiment: sandwich ELISA, hinge 76 capture, HRP-mAb; proBNP(1-108) 0 pg/ml (blank)
[13] = molecular target: human proBNP(1-108), recombinant protein produced in E. coli (HyTest), non-glycosylated (human) (UniProt P16860); experiment: sandwich ELISA, hinge 76 capture, HRP-mAb; proBNP(1-108) 312.5 pg/ml
[14] = molecular target: human BNP(1-32), synthetic peptide (Sigma-Aldrich #B-5900) (human); experiment: sandwich ELISA, L21016 capture; BNP(1-32) 0 pg/ml (blank)
[15] = molecular target: human BNP(1-32), synthetic peptide (Sigma-Aldrich #B-5900) (human); experiment: sandwich ELISA, L21016 capture; BNP(1-32) 2,500 pg/ml
[16] = molecular target: human proBNP(1-108), recombinant protein produced in E. coli (HyTest), non-glycosylated (human) (UniProt P16860); experiment: sandwich ELISA, hinge 76 capture, HRP-mAb; proBNP(1-108) 78 pg/ml
[17] = molecular target: human BNP(1-32), synthetic peptide (Sigma-Aldrich #B-5900) (human); experiment: sandwich ELISA, L21016 capture; BNP(1-32) 156.25 pg/ml
[18] = molecular target: human BNP(1-32), synthetic peptide (Sigma-Aldrich #B-5900) (human); experiment: sandwich ELISA, L21016 capture; BNP(1-32) 78 pg/ml
[19] = molecular target: human proBNP(1-108), recombinant protein produced in E. coli (HyTest), non-glycosylated (human) (UniProt P16860); experiment: sandwich ELISA, hinge 76 capture, HRP-mAb; proBNP(1-108) 625 pg/ml
[20] = molecular target: human BNP(1-32), synthetic peptide (Sigma-Aldrich #B-5900) (human); experiment: sandwich ELISA, L21016 capture; BNP(1-32) 5,000 pg/ml
[21] = molecular target: human proBNP(1-108), recombinant protein produced in E. coli (HyTest), non-glycosylated (human) (UniProt P16860); experiment: sandwich ELISA, hinge 76 capture, HRP-mAb; proBNP(1-108) 5,000 pg/ml
[22] = molecular target: human BNP(1-32), synthetic peptide (Sigma-Aldrich #B-5900) (human); experiment: sandwich ELISA, L21016 capture; BNP(1-32) 10,000 pg/ml
[23] = molecular target: human proBNP(1-108), recombinant protein produced in E. coli (HyTest), non-glycosylated (human) (UniProt P16860); experiment: sandwich ELISA, hinge 76 capture, HRP-mAb; proBNP(1-108) 2,500 pg/ml
[24] = molecular target: human proBNP(1-108), recombinant protein produced in E. coli (HyTest), non-glycosylated (human) (UniProt P16860); experiment: sandwich ELISA, hinge 76 capture, HRP-mAb; proBNP(1-108) 1,250 pg/ml
[25] = molecular target: human BNP(1-32), synthetic peptide (Sigma-Aldrich #B-5900) (human); experiment: sandwich ELISA, L21016 capture, BNP(1-32) 5 ng/ml; 50B7 0.5 µg/ml alone, no 20G7
[26] = molecular target: 24C5 monoclonal antibody (HyTest); experiment: competition ELISA: BNP(1-32) immobilised at 0.5 µg/ml, 24C5 at 0.5 µg/ml mixed with the soluble peptide, anti-mouse IgG-peroxidase; % inhibition of the binding of 24C5 to BNP(1-32)

Sequence of glycosylated human proBNP(1-108), recombinant protein from HEK293 cells (HyTest) (human) (P16860 27-134): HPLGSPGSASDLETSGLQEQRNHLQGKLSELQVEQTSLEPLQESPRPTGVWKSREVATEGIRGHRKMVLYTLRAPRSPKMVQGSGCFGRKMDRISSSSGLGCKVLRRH
Sequence of human proBNP(1-108), recombinant protein produced in E. coli (HyTest), non-glycosylated (human) (P16860 27-134): as above

Molecule	OD 490 nm [3] [OD]	OD 490 nm [4] [OD]	OD [5] [OD]	OD 490 nm [6] [OD]	OD 490 nm [7] [OD]	OD [8] [OD]	OD 490 nm [9] [OD]	OD [10] [OD]	OD [11] [OD]	OD [12] [OD]	OD [13] [OD]	OD 490 nm [14] [OD]	OD 490 nm [15] [OD]	OD [16] [OD]	OD 490 nm [17] [OD]	OD 490 nm [18] [OD]	OD [19] [OD]	OD 490 nm [20] [OD]	OD [21] [OD]	OD 490 nm [22] [OD]	also measured
hinge 76 monoclonal antibody (Bio-Rad)	–	–	–	–	–	–	–	–	–	–	–	–	–	–	–	–	–	–	–	–	Kd [1]: 23.5 nM; koff [1]: 0.00272 s⁻¹; kon [1]: 117000 M⁻¹ s⁻¹; Kd [2]: 0.173 nM; koff [2]: 0.000194 s⁻¹; kon [2]: 1.12e+06 M⁻¹ s⁻¹
50B7 monoclonal antibody (HyTest)	–	–	–	–	–	–	–	–	–	–	–	–	–	–	–	–	–	–	–	–	OD 490 nm [25]: 1.3 OD
AGRKMDR [mutated epitope peptide A11GRKMDR17 (SEQ ID NO: 62)]	–	–	–	–	–	–	–	–	–	–	–	–	–	–	–	–	–	–	–	–	IC50 (read off the curve) [26]: 2 µg/mL

Second part, led by results:

OD 490 nm [3] [OD]	OD 490 nm [4] [OD]	OD [5] [OD]	OD 490 nm [6] [OD]	OD 490 nm [7] [OD]	OD [8] [OD]	OD 490 nm [9] [OD]	OD [10] [OD]	OD [11] [OD]	OD [12] [OD]	OD [13] [OD]	OD 490 nm [14] [OD]	OD 490 nm [15] [OD]	OD [16] [OD]	OD 490 nm [17] [OD]	OD 490 nm [18] [OD]	OD [19] [OD]	OD 490 nm [20] [OD]	OD [21] [OD]	OD 490 nm [22] [OD]	Molecule	also measured
0.059	0.068	0.055	0.055	0.056	0.052	0.063	0.22	0.056	0.044	0.035	0.071	0.067	0.056	0.071	0.052	0.07	0.068	0.117	0.077	24C5 monoclonal antibody (HyTest)	OD [23]: 0.069 OD; OD [24]: 0.068 OD
0.029	0.034	0.027	0.032	0.031	0.028	0.027	0.158	0.028	0.024	0.028	0.022	0.035	0.033	0.032	0.055	0.024	0.041	0.041	0.048	26E2 monoclonal antibody (HyTest)	OD [23]: 0.031 OD; OD [24]: 0.024 OD

From patent US20100209939A1
